Measured values taken from patent US11839642B2, “Anti-angiogenin peptides, compositions, and methods of use” (The Board of Regents of the University of Oklahoma, priority 2018, dated 2023).

Target: T1, angiogenin (Homo sapiens, UniProt P03950)
T1 construct: purchased R&D systems, Inc., Minneapolis
Assay: Affinity-selection (biopanning) of Ph.D.-12 phage library against angiogenin, DNA sequencing of plaques
Type: binding
Conditions: after fourth round of affinity-selection
Experimental: Phage affinity-selection (biopanning) procedure was performed by following the standard protocol with minor modifications (FIG. 1). The target protein angiogenin (R&D systems, Inc., Minneapolis) used for biopanning was diluted to 20, 4, 0.8 and 0.16 μg/mL in 0.1 M NaHCO3 (pH=8.6) in the first, second, third and fourth round, respectively. During each round, 400 μL of angiogenin with designated concentration, was added into a well (diameter is 15.6 mm) of the 24 well cell culture plate (Cat. #: 142475, Thermo Fisher Scientific), and incubated overnight at 4° C. with the lid on in a humidified container. Then the supernatant was pipetted out and the plate was firmly slapped face down on a paper towel to remove the residual solution. Afterwards, 500 μL of blocking buffer (5 mg/mL BSA, 0.1M NaHCO3) was added into the well and incubated for 3 h at 4° C., after which the supernatant was discarded. […]
A small amount (5 μL) of the above eluate mixture was diluted 10-fold with PBS buffer. […] The titer was calculated by this equation: titer=1000×N×M pfu/mL, where N and M are the dilution factor and the number of the blue phage plaques on a plate, respectively. […]

T1 sequence (P03950 25-147): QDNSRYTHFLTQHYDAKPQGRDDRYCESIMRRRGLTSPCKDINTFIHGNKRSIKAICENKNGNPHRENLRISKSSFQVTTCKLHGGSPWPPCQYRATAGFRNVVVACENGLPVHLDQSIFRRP

| Sequence | repeats of the peptide sequence among 57 sequenced plaques [repeats] |
| --- | --- |
| FHHPSIHDRHRH (PEPTIDE (1)..(12) Completely synthesized in the lab - Ph.D.-12 Phage Display Peptide Library) [FH peptide] | 4 |
| WPYWNHHSHNNV (PEPTIDE (1)..(12) Completely synthesized in the lab - Ph.D.-12 Phage Display Peptide Library) [WV peptide] | 11 |
